According to publication PMC9811684 (2023):

Tests used:
Assay in all cases: multimer staining
[1] = molecular target: T1, SARS-CoV-2 spike protein (SPIKE) peptide on HLA-A*24:02 (human)
T1 peptide: QYIKWPWYIW

[2] = molecular target: T2, SARS-CoV-2 spike protein (SPIKE) peptide on HLA-A*23:01 (human)
T2 peptide: QYIKWPWYIW

[3] = molecular target: T3, SARS-CoV-1 spike protein peptide on HLA-A*24:02 (human)
T3 peptide: QYIKWPWYVW

[4] = molecular target: T4, 229E spike protein peptide on HLA-A*24:02 (human)
T4 peptide: TYIKWPWWVW

[5] = molecular target: T5, OC43 spike protein peptide on HLA-A*24:02 (human)
T5 peptide: YYVKWPWYVW

[6] = molecular target: T6, NL63 spike protein peptide on HLA-A*24:02 (human)
T6 peptide: NYIKWPWWVW

[7] = molecular target: T7, HKU1 spike protein peptide on HLA-A*24:02 (human)
T7 peptide: MYVKWPWYVW

Measured: binding result

B1: TCRQYI (TCR)
alpha TRAV20*01 TRAJ32*01 CDR3: CAALNYGGATNKLIF
beta TRBV4-3*01 TRBJ2-7*01 CDR3: CASSPSGGAYEQYF
recognises: [1] | [2] | [3] | [4] | [5] | [6] | [7]
